Results reported in patent US20180179274A1 (INSTITUTE FOR RESEARCH IN BIOMEDICINE, published 2018).

Target: T1, RIFIN PF3D7_1400600 (Plasmodium falciparum)
T1 construct: A-type RIFIN; on transfected CHO cells, and native from 3D7-MGD21^+ IEs in the immunoprecipitation
T1 chain: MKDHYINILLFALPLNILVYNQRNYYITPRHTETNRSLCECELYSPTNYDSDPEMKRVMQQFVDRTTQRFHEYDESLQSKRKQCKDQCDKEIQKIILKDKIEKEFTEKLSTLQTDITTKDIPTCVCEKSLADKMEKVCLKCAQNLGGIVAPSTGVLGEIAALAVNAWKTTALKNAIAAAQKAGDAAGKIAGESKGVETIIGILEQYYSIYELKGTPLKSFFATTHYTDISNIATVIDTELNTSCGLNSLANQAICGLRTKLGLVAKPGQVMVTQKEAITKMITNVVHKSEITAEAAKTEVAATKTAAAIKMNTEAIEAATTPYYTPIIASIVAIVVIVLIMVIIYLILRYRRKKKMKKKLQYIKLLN
Assay: immunoprecipitation and LC-MS

B1: MGD21 (antibody)
VH: EVQLVETGPGLMKTSGTLSLTCAVSGDYVNTNRRWSWVRQAPGKGLEWIGEVHQSGRTNYNPSLKSRVTISVDKSKNQFSLKVDSVTAADTAVYYCARASPLKSQRDTDLPRPSISAEPGTVIPLGSHVTFVCRGPVGVQTFRLERERNYLYSDTEDVSQTSPSESEARFRIDSVNAGNAGLFRCIYYKSRKWSEQSDYLELVVKGEDVTWALSQSQDDPRACPQGELPISTDIYYVDVWGNGTTVTVSS
VL: AIRMTQSPSSLSASPGDKVSITCRASQHINDSLAWFQQRPGKAPKLLIYGASNLHSGVPSRFSGTGSGTDFTLTITGLQSEDFATYFCQQCNCFPPDFGQGTRLEIK
notes: Donor D; LAIR-1 insert in CDRH3; variable regions only; also called MGD21 ANTIBODY; mAb MGD21
- log2 fold change (MGD21 immunoprecipitates of 3D7-MGD21^+ against 3D7-MGD21^- IEs): 2 log2 fold
